Reference: US20240294668A1 (SHANGHAI SYNVIDA BIOTECHNOLOGY, published 2024)

Columns and labels:
[1] = biological target: T1, human FIXa (activated coagulation factor IX) (human, UniProt P00740 47-191; P00740 227-461); test: cell-based or functional assay
[2] = biological target: T1, human FIXa (activated coagulation …); test: ELISA, FIXa antigen coated on the plate, anti-mouse secondary antibody, OD450
Description: After culturing hybridoma cells for 7 days, ELISA was used for detecting positive antibodies. 0.1 μg/100 μl of FIXa antigen was coated on an ELISA plate (CORNING), incubated at 37° C. for 1.5 h; then blocked with 2% BSA at 37° C. for 1 h; and then primary antibody, the supernatant of cultured cells, was added and incubated at 37° C. for 1.5 h. After that, mouse secondary antibody was added and incubated at 37° C. for 30 min. Finally, chromogenic substrate TMB (Thermo) was added for 5 min at room temperature in dark, then stop solution 2M H₂SO₄ was added to terminate the reaction. Antibody-positive cell lines were screened according to the absorbance value measured at 450 nm by a spectrophotometer (Thermo Fisher scientific company). Then the cell lines were cultured for cloning in a semi-solid medium ([…] company), with single clones selected into 96-well plates after 7 days. […]
Following the instructions provided in the Sigma company's subtype detection kit, the antigen was coated, blocked, incubated with primary antibody (0.1 μg/100 μl), incubated with isotype-specific reagent at room temperature for 30 minutes, incubated with secondary antibody (R-antiGoat-HRP) for chromogen development, with stop solution added to terminate the reaction, and finally the absorbance was measured at 450 nm. […]

T1 sequence (P00740 47-191 limits assumed, chain 1 of 2): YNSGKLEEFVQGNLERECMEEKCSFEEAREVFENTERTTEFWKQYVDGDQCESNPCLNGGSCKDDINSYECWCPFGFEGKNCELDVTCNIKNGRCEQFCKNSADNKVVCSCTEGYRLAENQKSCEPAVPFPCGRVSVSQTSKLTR
T1 sequence (P00740 227-461 limits assumed, chain 2 of 2): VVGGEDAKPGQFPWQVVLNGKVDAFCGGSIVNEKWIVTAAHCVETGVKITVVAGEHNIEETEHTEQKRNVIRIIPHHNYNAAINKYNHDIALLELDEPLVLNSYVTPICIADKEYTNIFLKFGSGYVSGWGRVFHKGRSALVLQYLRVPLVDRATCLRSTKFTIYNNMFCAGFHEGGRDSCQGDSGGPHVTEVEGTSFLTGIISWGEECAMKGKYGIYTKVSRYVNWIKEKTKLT

B1: FIXa-4 antibody (antibody, V domains shown)
VH: QVTLKESGPGILKPSQTLSLTCSFSGFSLNTPGMGVGWIRQPSGKGLEWLAHIWWDDDKYYNPSLKSQLTISKDTSRNQVFLKITSVDTADTATYYCARSDDVSYALDYWGQGTSVTVSS
VL: DIQMTQSPASLSASVGETVTITCRASENIDSYLAWYQQKQGKSPQLLVYNAKTLADGVPSRFSGSGSGTQFSLKIDSLQPEDFGSHYCQHHDGTTWTFGGGTKLEIK
notes: A subtype test is described, but the isotype and constant regions are not reported; also called anti-FIXa monoclonal antibody; FIX-4 antibody
activated partial thromboplastin time (APTT), IC50 [1]: 7.71 µg/mL
activated partial thromboplastin time (APTT), fold over control [1]: 3.5 times
EC50 [2]: 0.0947 µg/mL
